# B1: TR14 S1-3 (22-mer) (ssRNA)
# RNA: UUUAUUCACAUUUUUGAAUUGA
# modifications: 2'-F (library of 2'F RNAs; positions not stated)
# Molecular target: Transferrin receptor (TfR, TFRC) (UniProt P02786 SEQ:89-760)
# Assay: SPR; value only in figure, stated to be in similar range to TR14; Biacore T100, biotinylated aptamer on SA chip, 30 mM Tris-HCl pH 7.5, 150 mM NaCl, 5 mM MgCl2
# Conditions: SELEX was against the extracellular domain; chain copies: 2; label: biotin (SPR), Cy3 (cell imaging)
# Experimental: The kinetics of TR14 S1-3 were analysed by surface plasmon resonance (SPR) technology. The Biacore T100 (GE Healthcare, Uppsala, Sweden) was used to monitor label-free the aptamer-transferrin receptor interactions in real time. Biotinylated aptamers were coupled to a streptavidin-coated Biocore chip (SensorChip SA, BR-1003-98, General Electric Company) by an injection in binding buffer at concentration of 25 μg/mL (30 mM Tris-HCl, pH 7.5, 150 mM NaCl, 5 mM MgCl2) at 10 uL/min. The RNA was refolded by heating to 65° C. followed by cooling to 37° C. before immobilization. To measure binding kinetics, five concentrations of purified transferrin receptor protein were injected at a flow rate of 10 uL per minute. After binding, the surface was regenerated by injecting 50 mM NaOH at flow rate of 15 μL per minutes for 20 seconds. Data from the control surface were subtracted. BlAevaluation software (GE Healthcare) was used for analysis. The binding data were fit to a 1:1 binding with a mass transfer model to calculate kinetic parameters.
# Chain of Transferrin receptor (TfR, TFRC) (P02786 89-760): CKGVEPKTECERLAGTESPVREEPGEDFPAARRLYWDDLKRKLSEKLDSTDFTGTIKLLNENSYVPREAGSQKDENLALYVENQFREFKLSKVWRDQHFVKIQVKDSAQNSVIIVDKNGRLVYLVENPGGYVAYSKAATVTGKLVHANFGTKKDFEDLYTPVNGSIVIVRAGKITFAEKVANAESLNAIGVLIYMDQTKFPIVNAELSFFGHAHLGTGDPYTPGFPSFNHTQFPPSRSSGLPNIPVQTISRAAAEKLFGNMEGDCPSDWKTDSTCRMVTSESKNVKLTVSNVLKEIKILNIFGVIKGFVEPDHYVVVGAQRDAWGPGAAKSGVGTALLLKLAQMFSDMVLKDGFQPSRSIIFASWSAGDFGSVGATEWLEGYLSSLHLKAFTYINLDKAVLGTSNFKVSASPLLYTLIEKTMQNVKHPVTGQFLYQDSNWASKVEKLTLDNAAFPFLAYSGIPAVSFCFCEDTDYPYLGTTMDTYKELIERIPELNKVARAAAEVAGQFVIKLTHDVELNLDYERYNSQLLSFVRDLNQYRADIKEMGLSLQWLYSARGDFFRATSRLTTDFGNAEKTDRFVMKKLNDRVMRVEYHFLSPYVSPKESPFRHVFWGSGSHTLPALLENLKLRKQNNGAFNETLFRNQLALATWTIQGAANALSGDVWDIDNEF
binder,measurement,value
B1,binding result,binds

# — patent publication US20200172905, “RNA APTAMERS AGAINST TRANSFERRIN RECEPTOR (TFR)” (CITY OF HOPE, published 2020)
